{
  "source": "patent US6046224A",
  "about": "“12 (S)--hete receptor blockers” (City of Hope, priority 1998, dated 2000)",
  "origin": "cited, not measured here",
  "key": {"CHO-AT1a cells [1]": {"system": "CHO-AT1a cells", "settings": "CHO-AT1a cells; 0.1 µM; cited from earlier work"}, "CHO-AT1a cells [2]": {"system": "CHO-AT1a cells", "settings": "cited from earlier work"}},
  "data": [
    {"substance": "AII: growth factor and potent vasoconstrictor AII (DRVYIHPF; Angiotensin-2; UniProt P01019 25-32, looked up)", "values": [
      {"measurement": "increase in cell proliferation", "setting": "CHO-AT1a cells [1]", "value": 2, "unit": "fold"},
      {"measurement": "increase in 12(S)-HETE formation", "setting": "CHO-AT1a cells [2]", "value": 2, "unit": "fold"}
    ]}
  ]
}
